Reference: the supplement of paper PMC9233669
This sample holds only a part of the variants without activity.

Tests used:
biotinyl-Ile-oxazolone = assay: self-aminoacylation, catalytic enhancement (BIO) (fold over background); higher = more active; k-Seq, kA / k0A0; sequences stand for … in GGGAAUGGAUCCACAUCUACGAAUUC…UUCACUGCAGACUUGACGAAGCUG
How it was run: (§1)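 The uncatalyzed rate is the low-activity peak of a bimodal Gaussian fit, and catalytic enhancement is median kA divided by it. The kA values came from pseudo-first-order fits, with 1000 bootstraps, of per-sequence fraction reacted measured by streptavidin capture, triplicate qPCR and Illumina sequencing. Mutagenized RNA pools with a 21-nt variable region (0.43 μM) were reacted with each biotinyl-aminoacyl-oxazolone at 2–1250 μM in 50 μL HEPES/NaCl/KCl/MgCl2/CaCl2 buffer with 5% acetonitrile, pH 6.9–7.0, for 90 minutes at room temperature.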

biotinyl-Trp-oxazolone = assay: self-aminoacylation, catalytic enhancement (BWO) (fold over background); higher = more active; k-Seq, kA / k0A0; sequences stand for … in GGGAAUGGAUCCACAUCUACGAAUUC…UUCACUGCAGACUUGACGAAGCUG
How it was run: as §1

biotinyl-Phe-oxazolone = assay: self-aminoacylation, catalytic enhancement (BFO) (fold over background); higher = more active; k-Seq, kA / k0A0; sequences stand for … in GGGAAUGGAUCCACAUCUACGAAUUC…UUCACUGCAGACUUGACGAAGCUG
How it was run: as §1

biotinyl-Val-oxazolone = assay: self-aminoacylation, catalytic enhancement (BVO) (fold over background); higher = more active; k-Seq, kA / k0A0; sequences stand for … in GGGAAUGGAUCCACAUCUACGAAUUC…UUCACUGCAGACUUGACGAAGCUG
How it was run: as §1

biotinyl-Leu-oxazolone = assay: self-aminoacylation, catalytic enhancement (BLO) (fold over background); higher = more active; k-Seq, kA / k0A0; sequences stand for … in GGGAAUGGAUCCACAUCUACGAAUUC…UUCACUGCAGACUUGACGAAGCUG
How it was run: as §1

biotinyl-Met-oxazolone = assay: self-aminoacylation, catalytic enhancement (BMO) (fold over background); higher = more active; k-Seq, kA / k0A0; sequences stand for … in GGGAAUGGAUCCACAUCUACGAAUUC…UUCACUGCAGACUUGACGAAGCUG
How it was run: as §1

Row | Sequence | self-aminoacylation (biotinyl-Ile-oxazolone) | self-aminoacylation (biotinyl-Trp-oxazolone) | self-aminoacylation (biotinyl-Phe-oxazolone) | self-aminoacylation (biotinyl-Val-oxazolone) | self-aminoacylation (biotinyl-Leu-oxazolone) | self-aminoacylation (biotinyl-Met-oxazolone)
1 | AUUACCCAGGUCAUUGAGUGA [Fam2.1 aminoacylation ribozyme variant] | 4.59 | 10.4 | 53.1 | 4.36 | 9.04 | 8.2
2 | CCACACGUCAAGCACUCGGUC [Fam1B.1 aminoacylation ribozyme variant] | 1.17 | 1.1 | 2.16 | 2.17 | 1.23 | 1.13
3 | AUGACUCUGGUCAUCGAGUGA [Fam2.1 aminoacylation ribozyme variant] | 2.62 | 5.56 | 23.2 | 2.75 | 5.16 | 4.86
4 | AUUCACCUGGGUUAUCGGGUG [Fam2.2 aminoacylation ribozyme variant] | 3.35 | 5.56 | 36.6 | 4 | 6.24 | 6.06
5 | CUACUUCAAACAAUCGGUCCG [Fam1A.1 aminoacylation ribozyme variant] | 0.711 | 5.32 | 8.83 | 0.749 | 0.862 | 0.745
6 | ACACUUCAAACAAUCGGUCUG [Fam1A.1 aminoacylation ribozyme variant] | 1.7 | 33.3 | 75.9 | 1.43 | 2.16 | 1.57
7 | AUUCACCUAGGUCAUAGAGUG [Fam2.2 aminoacylation ribozyme variant] | 2.23 | 2.12 | 10.1 | 2.08 | 3.92 | 2.98
8 | AUUACCCAGGUCCUCGAGUGA [Fam2.1 aminoacylation ribozyme variant] | 2.2 | 3.69 | 10.3 | 2.15 | 3.11 | 2.79
9 | CCACACUUCAAGCUUUCGGUC [Fam1B.1 aminoacylation ribozyme variant] | 1.53 | 1.1 | 0.741 | 1.64 | 1.3 | 1.17
10 | CUACUUAAAACCAUCGGUCUG [Fam1A.1 aminoacylation ribozyme variant] | 0.927 | 1.36 | 1.22 | 0.923 | 0.846 | 1.1
11 | AUUACCCUGGUAAUCGAGUGU [Fam2.1 aminoacylation ribozyme variant] | 2.17 | 4.99 | 19.2 | 2.22 | 5.04 | 5.16
12 | CUACUUCAGACACUCGGUCUG [Fam1A.1 aminoacylation ribozyme variant] | 1.2 | 1.03 | 1.77 | 1.54 | 1.52 | 1.49
13 | AAGCUUGCUAAGAGUCGCAAG [Fam3.1 aminoacylation ribozyme variant] | 2.51 | 3.08 | 3.44 | 2.44 | 2.66 | 2.23
14 | AUUCACGUAGGUCCUCGGGUG [Fam2.2 aminoacylation ribozyme variant] | 5.5 | 8.52 | 64.9 | 5.83 | 12.1 | 9.66
15 | AUUCACCAAGCUCAUCGGGUG [Fam2.2 aminoacylation ribozyme variant] | 2.4 | 1.79 | 9.43 | 2.92 | 2.92 | 2.13
16 | CCACACUUCAAGGAAUAGGUC [Fam1B.1 aminoacylation ribozyme variant] | 0.526 | 0.5 | 0.627 | 0.514 | 0.478 | 0.489
17 | AUUACCCAGGUCAGCGAGUGA [Fam2.1 aminoacylation ribozyme variant] | 3.4 | 6.47 | 34.2 | 3.31 | 5.59 | 5.2
18 | CUACUUCAAACUAUCGGUCUU [Fam1A.1 aminoacylation ribozyme variant] | 1.03 | 0.796 | 0.957 | 0.968 | 0.822 | 0.833
19 | AUUCAGCUAGGUCAUCGGGCG [Fam2.2 aminoacylation ribozyme variant] | 2.48 | 3.83 | 17.5 | 2.79 | 3.92 | 3.2
20 | AUUCACGUAGGUCAUCAGGUG [Fam2.2 aminoacylation ribozyme variant] | 1.99 | 2.88 | 5.34 | 2.24 | 2.7 | 2.77
21 | CAACACUUCAAGCUAUCGGUC [Fam1B.1 aminoacylation ribozyme variant] | 1.2 | 1.02 | 0.964 | 1.05 | 0.89 | 1.03
22 | AUUCACCUUCGUCAUCGGGUG [Fam2.2 aminoacylation ribozyme variant] | 2.12 | 2.79 | 14.9 | 2.38 | 3.28 | 2.3
23 | AUUCAUCUAGGUCUUCGGGUG [Fam2.2 aminoacylation ribozyme variant] | 3.75 | 4.84 | 37.4 | 3.66 | 6.24 | 4.49
24 | CAACACUGCAAGCAAUCGGUC [Fam1B.1 aminoacylation ribozyme variant] | 1.12 | 0.788 | 0.892 | 1.24 | 1.46 | 1.3
25 | CCACGCUUCAAGCAAACGGUC [Fam1B.1 aminoacylation ribozyme variant] | 0.647 | 0.544 | 0.644 | 0.665 | 0.477 | 0.457
26 | AAGUCUUCUAAUAGUCGCAAG [Fam3.1 aminoacylation ribozyme variant] | 2.06 | 2.07 | 3.19 | 1.52 | 1.83 | 1.56
